Results on 167 variants are retold here after the RNAGym collection of RNA variant scans (doi:10.1093/nar/gkz1192).

The chains are these.
B1: CPEB3 Ribozyme (parent)
chain: UAACAGGGGGCCACAGCAGAAGCGUUCACGUCGCAGCCCCUGUCAGAUUCUGGUGAAUCUGCGAAUUCUGCUGUAUAUCUC

Variants of B1 are the subject of this series. The series can be described thus: self-cleavage, relative activity (ratio to wild type); higher = more cleavage; in vitro, sequencing. In short, it runs like this: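 Relative activity compares each variant's cleaved/total read fraction with that of the unmutated ribozyme. To get these fractions, barcoded CPEB3 ribozyme libraries from rounds of error-prone PCR were transcribed with T7 RNA polymerase for 5 hours at 37°C and then given 15 min of DNase I treatment before EDTA was added. The RNAs were reverse transcribed with template switching and sequenced on Illumina, and DNA sequencing linked barcodes to variants. A minimum of 5 reads applied, and three batches were averaged.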
As to G53A A57G, the self-cleavage was 0.97.
With G53A U78C, the self-cleavage is 1.06.
For the variant U54C U74A, the self-cleavage worked out at 1.25.
The same measure for U54C U74G: 1.39.
The result for U54C U74C reads 1.21.
The result for U54C A64U reads 0.36.
Turning to U54C A64C, the self-cleavage worked out at 0.46.
For U54C A64G, the self-cleavage is 0.86.
As for A56C U58C, the self-cleavage amounted to 0.14.
G55U U60A: the self-cleavage came out at 0.27.
In the case of G55U U60C, the self-cleavage was determined as 0.27.
As to G52U U72G, the self-cleavage turned out to be 0.99.
As to G53A A65G, the self-cleavage is 0.52.
G53A A65U: the self-cleavage amounted to 0.22.
For U54A A77G, the self-cleavage was found to be 1.06.
In the case of U54A A77C, the self-cleavage was 1.12.
The same measure for U54A A77U: 1.23; for U54C A65C: 0.4; for U54C A65U: 0.32.
Consider U54C A65G, for which the self-cleavage is 0.49.
Take G52U U80C: the self-cleavage is 1.05.
With G53A A77G, the self-cleavage is 1.18.
As for G55A G61A, the self-cleavage came to 0.39.
Consider G55U A75G, for which the self-cleavage was determined as 0.92.
For the variant U54G U72G, the self-cleavage came to 0.93.
Take U54G U72C: the self-cleavage is 1.16.
Take U54G U72A: the self-cleavage came to 0.41.
Regarding U54A U80C, the self-cleavage turned out to be 1.14.
The same measure for U54A U80A: 1.21.
In the case of U54G U69C, the self-cleavage turned out to be 0.37.
As for U54G U69A, the self-cleavage was 0.62.
For the variant G55U U69C, the self-cleavage is 0.48.
Regarding G53A G61A, the self-cleavage came to 0.73.
The same measure for G53A U58A: 0.48; for G53A U58G: 0.24; for G53A U58C: 0.98.
G55U U66C: the self-cleavage was 0.49.
Regarding A56C A57G, the self-cleavage is 0.5.
Turning to U54A A65G, the self-cleavage worked out at 0.55.
Consider U54A A65U, for which the self-cleavage is 0.26.
As to U54A A65C, the self-cleavage amounted to 0.29.
With G55U U67C, the self-cleavage turned out to be 0.21.
The same measure for U54A A75C: 1.19; for U54A A75U: 1.21; for U54A A75G: 1.
The result for U54C G73U reads 1.22; that for U54C G73C, 1.33.
U54C G73A: the self-cleavage worked out at 1.26.
The result for G53C A64G reads 1.05; that for G53C A64U, 0.42.
With G53U U74A, the self-cleavage was determined as 1.2.
With G53U U74C, the self-cleavage amounted to 1.18.
The same measure for G52U U78C: 1.08; for G53A C79A: 1.22; for G53A C79U: 1.18.
Regarding G55U C62U, the self-cleavage was found to be 0.23.
Consider G55A U66C, for which the self-cleavage turned out to be 0.22.
The result for U54G A57G reads 0.43; that for U54G A57U, 0.25; that for G53U U54A, 0.98.
On to G53U U67C, for which the self-cleavage stood at 0.21.
Consider G55U A65G, for which the self-cleavage is 0.24.
For the variant G55U A65U, the self-cleavage came out at 0.31.
G53U U76C: the self-cleavage is 1.22.
Regarding U54G C71A, the self-cleavage was 0.42.
Turning to U54G C62U, the self-cleavage worked out at 0.19.
Turning to U54C G55A, the self-cleavage was 0.62.
U54C G55U: the self-cleavage was found to be 0.78.
For the variant U54A C59G, the self-cleavage was 0.35.
For U54G G63U, the self-cleavage is 1.03.
The same measure for U54G G63A: 0.91; for G55A: 0.84.
As to G55C, the self-cleavage came to 0.94.
The result for G55U reads 1.02; that for U54C G61C, 0.3.
On to U54C G61A, for which the self-cleavage is 0.65.
As to G55U U58A, the self-cleavage amounted to 0.25.
The result for G53U A65U reads 0.25; that for G53U A65G, 0.61.
Take U54G U78A: the self-cleavage stood at 1.
The same measure for U54G U78C: 0.68.
On to G55U U80C, for which the self-cleavage came out at 1.06.
For the variant G55U U80A, the self-cleavage came out at 1.11.
The same measure for U54G A64G: 0.6; for U54G A64U: 0.28.
Consider G55A U67C, for which the self-cleavage was found to be 0.22.
The result for G55A U67A reads 0.28.
With U54G A56G, the self-cleavage was determined as 0.46.
Consider U54G A56U, for which the self-cleavage is 0.31.
In the case of A56C U76A, the self-cleavage came out at 0.71.
The same measure for U54G U76C: 0.98.
U54C A57C: the self-cleavage turned out to be 0.23.
The same measure for U54C A57G: 0.66; for U54C A57U: 0.56.
For the variant U54A U60G, the self-cleavage is 0.65.
Consider U54A U60A, for which the self-cleavage worked out at 0.68.
For the variant U54A U60C, the self-cleavage worked out at 0.67.
On to G55U A56U, for which the self-cleavage was 0.7.
As to G55U G61A, the self-cleavage was 0.6.
With U54G U58A, the self-cleavage was found to be 0.2.
Turning to U54G U58C, the self-cleavage was found to be 0.39.
Regarding U54A G63A, the self-cleavage amounted to 0.95.
Consider A56C U78C, for which the self-cleavage was 0.49.
Take G53A U80A: the self-cleavage is 1.18.
Consider G53A U80C, for which the self-cleavage stood at 1.17.
Regarding U54A A56G, the self-cleavage was 0.82.
In the case of U54A A56U, the self-cleavage was found to be 0.66.
With G52U U76C, the self-cleavage was found to be 1.19.
G52U U76G: the self-cleavage came to 1.19.
The result for G52U U76A reads 1.24; that for G53C A57G, 1.1.
The result for A56C A65G reads 0.22; that for G55C A64U, 0.23; that for G55C A64G, 0.72.
For the variant G55U U72C, the self-cleavage was 0.78.
As for U54C U69G, the self-cleavage came out at 0.43.
On to U54C U69C, for which the self-cleavage was found to be 0.52.
U54C U69A: the self-cleavage is 0.57.
The same measure for U54A G55A: 0.8.
On to U54A G55U, for which the self-cleavage came out at 1.15.
Turning to U54C C79A, the self-cleavage amounted to 1.18.
As to U54C U67C, the self-cleavage stood at 0.26.
As to U54C U67A, the self-cleavage amounted to 0.48.
The result for G55C U80A reads 0.7; that for U54A U72C, 1.17; that for U54A U72A, 1.02.
In the case of U54A U72G, the self-cleavage stood at 0.87.
The same measure for U54C U80C: 1.09; for U54C U80A: 1.17; for G53A C59U: 1.07.
For the variant G53A C59A, the self-cleavage is 0.58.
In the case of U54C C68U, the self-cleavage worked out at 1.09.
As to U54C C68A, the self-cleavage was determined as 0.43.
For the variant U54C C68G, the self-cleavage turned out to be 0.29.
Consider A56C U80C, for which the self-cleavage was 0.93.
For G55U U74C, the self-cleavage stood at 1.35.
On to A56C U69C, for which the self-cleavage is 0.12.
For the variant G55A U74A, the self-cleavage came to 1.18.
For U54G U74C, the self-cleavage is 0.92.
As to U54G G73A, the self-cleavage was found to be 1.17.
Turning to G55A A57G, the self-cleavage came to 0.46.
G55A A57U: the self-cleavage amounted to 0.54.
In the case of U54A C71A, the self-cleavage was found to be 0.42.
As to A56C U60C, the self-cleavage turned out to be 0.18.
Regarding G53A U54C, the self-cleavage was 0.92.
For G55A U60A, the self-cleavage came out at 0.44.
On to G55A U60C, for which the self-cleavage came to 0.25.
The result for G55C U67A reads 0.44; that for G53C U67G, 0.54.
The result for G53C U67C reads 0.17; that for G53U, 1.21.
The result for G53A reads 1.13.
Regarding G53C, the self-cleavage stood at 1.13.
The same measure for G53A A56U: 0.79; for G53A A56G: 1.
For the variant G53U U72C, the self-cleavage came to 1.2.
For G53U U72A, the self-cleavage came out at 0.94.
The result for G53U U69C reads 0.59; that for U54C G63C, 1.01; that for U54C G63A, 0.73.
The result for U54C G63U reads 1.13; that for U54G U67G, 0.14; that for U54G U67A, 0.57.
The same measure for U54G U67C: 0.32; for U54C U76A: 1.17.
With U54C U76G, the self-cleavage came out at 0.98.
In the case of U54C U76C, the self-cleavage worked out at 1.06.
